This is an account of results in IntAct's records for PubMed 23386062.

B1: Ras-related protein Rab-4B (Rattus norvegicus (Rat)), P51146 (parent)
chain: MAETYDFLFKFLVIGSAGTGKSCLLHQFIENKFKQDSNHTIGVEFGSRVVNVGGKTVKLQIWDTAGQERFRSVTRSYYRGAAGALLVYDITSRETYNSLAAWLTDARTLASPNIVVILCGNKKDLDPEREVTFLEASRFAQENELMFLETSALTGENVEEAFLKCARTILNKIDSGELDPERMGSGIQYGDISLRQLRQPRSAQAVAPQPCGC
B2: Ras-related protein Rab-9A (Homo sapiens), P51151 (parent)
chain: MAGKSSLFKVILLGDGGVGKSSLMNRYVTNKFDTQLFHTIGVEFLNKDLEVDGHFVTMQIWDTAGQERFRSLRTPFYRGSDCCLLTFSVDDSQSFQNLSNWKKEFIYYADVKEPESFPFVILGNKIDISERQVSTEEAQAWCRDNGDYPYFETSAKDATNVAAAFEEAVRRVLATEDRSDHLIQTDTVNLHRKPKPSSSCC

The variants in the first experiment derive from B1. The settings on record: with nisch_human NISCH.
Regarding S22N, the “effect of a mutation on the interaction” value is “disrupting interaction”.

In another experiment the parent is B2. The settings on record: with nisch_human NISCH.
As to S21D, the “effect of a mutation on the interaction” value is “disrupting interaction”.
